# T1: Frq1 (S. cerevisiae, UniProt Q06389 1-190)
# T1 sequence (looked up): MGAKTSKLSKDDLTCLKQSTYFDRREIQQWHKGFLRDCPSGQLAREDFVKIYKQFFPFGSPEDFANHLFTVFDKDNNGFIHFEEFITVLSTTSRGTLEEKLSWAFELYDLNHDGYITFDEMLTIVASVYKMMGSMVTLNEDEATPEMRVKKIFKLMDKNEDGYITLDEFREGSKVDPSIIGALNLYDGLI
# B1: Pik1(121-174) peptide (peptide, UniProt P39104 121-174, looked up)
# peptide: ASYGFQVARRVLNNLQTNLFNTSSGSDKNVKIHENVAPALVLSSMIMSAIAFPQ
# Target: T1, Frq1
# Experiment: SEC
binder,measurement,value
B1,binding result,binds
